In patent US20240166738A1 (priority 2021, published 2024):

B1: TM-21: anti-TMEM106B monoclonal antibody; CDR-H1-3 SEQ ID NO: 18, 54, 97; CDR-L1-3 SEQ ID NO: 137, 168, 201 (antibody, V domains shown)
VH: EVQLVESGGGLVKPGGSLKLSCAASGFTFSNYAMSWVRETPEKRLEWVAFISDGGGYIYYADNVKDRFTISRDNAKNNLYLQMRHLKSEDTAMYYCARDGGTGFTYWGQGTLVTVSV
VL: DIVMTQAAFSNPVTLGTSASISCRSSKSLLHSNGITYLFWYLQKPGQSPQLLIYQMSNLASGVPDRFSSSGSGTDFTLRISRVEAEDVGVYYCVQNLELPYTFGGGTKLEIK
B2: TM-7: anti-TMEM106B monoclonal antibody; CDR-H1-3 SEQ ID NO: 8, 41, 84; CDR-L1-3 SEQ ID NO: 126, 166, 190 (antibody, V domains shown)
VH: EVQLQQSGPVLVKPGPPVKISCKASGFTFTDYYIHWVKLSHGKSLEWIGLVYPYNGDTDYNQKFKGKATLTVDTSSSTAYMELNSLTSEDSAVYYCARTYYANSPDYWGQGTTVTVSS
VL: DIVMTQSPSSLSVSAGEKVTMSCKSSQSLLNSGNQRNYLAWYQQKPGQPPKLLIYGASTRESGVPDRFTGSGSGTDFTLTISNVQAEDLAVYYCQNDHSYPLTFGAGTKLELK
B3: TM-15: anti-TMEM106B monoclonal antibody; CDR-H1-3 SEQ ID NO: 15, 49, 92; CDR-L1-3 SEQ ID NO: 133, 171, 197 (antibody, V domains shown)
VH: QVQLQQPGAEFVRPGASVKLSCKASGYTFTNYWITWVKQRPGHGLEWIGDIYPGSGNSNYNESFKRKATLTVDTSSSTAYMHLSSQTSEDSAVYFCARKAYGGFPYWGQGTLVTVSA
VL: DIQMTQSPASLSVSVGETVTITCRVSENIYNNLAWYQQKQEKSPQLLVFAATNLADGVPSRFSGSGSGTQFSLKINSLQSEDFGTYYCQHFWDTPFTFGSGTKLEIK
B4: TM-84: anti-TMEM106B monoclonal antibody; VH SEQ ID NO: 489, VL SEQ ID NO: 524 (antibody, V domains shown)
VH: QVQLQQSGAELVKPGASVKMSCKASGYTFTTFPIEWMKQNHGKSLEWIGNFHPYNDDTKYNEKFKGKATLTVEKSSSTVYLELSRLTSDDSAVYYCARYFYGGMDYWGQGTSVTVSS
VL: DIQMTQSPASLSVSVGETVTITCRASENIYSSLGWYHQKQGKSPQLLVFAATNLADGVPSRFSGSGSGTQYSLKINSLQSEDFGTYYCQHLWSVPWTFGGGTKLEIK
modifications: Variable Heavy Chain -- TM-84; Variable Light Chain -- TM-84
B5: TM-86: anti-TMEM106B monoclonal antibody; VH SEQ ID NO: 491, VL SEQ ID NO: 526 (antibody, V domains shown)
VH: EVQLQQSGPVLVKPGASVKMSCKASGYTFTDYYIHWVKQSHGRSLEWIGVISPYNDNTNYNQKFKGKATLTVDKSSSTAYMELNSLTSEDSAVYYCVRTYYSNYFDYWGQGTTLTVSS
VL: DIVMTQSPSSLSVSAGEKVTMSCKSSQSLLNSGNQKNYLAWHQQRPGQPPKLLIYGASTRESGVPDRFTGSGSGTEFTLTISSVQAEDLAVYYCQNDHSYPLTFGAGTKLELK
modifications: Variable Heavy Chain -- TM-86; Variable Light Chain -- TM-86
B6: TM-88: anti-TMEM106B monoclonal antibody; VH SEQ ID NO: 493, VL SEQ ID NO: 528 (antibody, V domains shown)
VH: EAQLQQSGPVLVKPGASVKMSCKTSGYTFTDYYINWVKQSHGKSLEWIGVINPYSGATYYTQKFKGKATLTVDKSSSTAYMELNSQTSEDSAVYYCARGGYDYGHWYFDVWGTGTTVTVSS
VL: ETTVTQSPASLSMAIGEKVTIRCITSSDIDDHMNWYRQKPGEPPEFLISEGNALRPGVPSRFSSSGYGTDFIFTIENILSEDVADYYCLQSDNLPLTFGAGTKLELK
modifications: Variable Heavy Chain -- TM-88; Variable Light Chain -- TM-88

Target: GST-TMEM106B (truncated, comprising amino acids 122-210 of SEQ ID NO:1) (Homo sapiens, UniProt Q9NUM4)
Sequence (Q9NUM4 122-210): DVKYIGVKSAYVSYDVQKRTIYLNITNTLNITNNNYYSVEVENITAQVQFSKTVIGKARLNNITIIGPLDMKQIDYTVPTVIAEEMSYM
Experiment: Pre-mix epitope binning of anti-TMEM106B antibodies (Carterra / Lake Pharma)
Type: binding
Design: key to epitope bin: Bin 1: competes for binding to the same or overlapping TMEM106B region as the TM1, TM17, TM22, TM26, TM79, and/or TM82 antibodies; Bin 2: competes for binding to the same or overlapping TMEM106B region as the TM3, TM9, TM10, TM11, TM12, TM13, TM18, TM19, TM21, TM24, TM25, TM32, TM35, TM37, TM42, TM45, TM48, TM54, TM59, TM60, TM61, and/or TM76 antibodies; Bin 3: competes for binding to the same or overlapping TMEM106B region as the TM7, TM15, TM83, and/or TM84 antibodies; Bin 4: competes for binding to the same or overlapping TMEM106B region as the TMS, TM28, TM29, TM30, TM63, TM64, TM72, TM78, TM80, TM86, and/or TM88 antibodies; Bin 5: does not bind to a truncated TMEM106B comprising amino acids 122-210 of SEQ ID NO:1
Conditions: for epitope bin: competition for binding to truncated GST-TMEM106B (amino acids 122-210); for Binding Community/Bin: epitope bin number, pre-mix binning on truncated GST-TMEM106B
Protocol: (§1) Monoclonal anti-TMEM106B antibodies were immobilized to a CMD 50M chip (Xantec # SPMXCMD5OM lot# SCCMD50M0416). The running buffer was HBS-EP+ with 1 mg/mL BSA. The GST-TMEM106B (truncated, comprising amino acids 122-210 of SEQ ID NO:1) antigen was prepared at a final concentration of 55 nM (corresponding to 2 μg/mL) and mixed with the competing analyte anti-TMEM106B antibodies at a final concentration of 333 nM (corresponding to 50 μg/mL) or compared to a buffer control. Samples were injected for 5 minutes over the array and regenerated after every cycle with 1 minute of two parts Pierce IgG-Elution buffer (ThermoFisher Cat#21004) and 1 part of 10 mM Glycine, pH 2.0 (Carterra).
Anti-TMEM106B antibodies sorted into various competing bins and resulting binning profiles. […] Antibodies within Bin 3 or Bin 4 partially block Bin 2 antibodies.
as §1, with “SPMXCMD50M” for “SPMXCMD5OM”, “lmg/ml” for “1 mg/mL”, “(truncated)” for “(truncated, comprising amino acids 122-210 of SEQ ID NO:1)”, “μg/ml)” for “μg/mL)”

Row | Molecule | epitope bin | Binding Community/Bin
1 | B1 | Bin 2 | 2
2 | B2 | Bin 3 | 3
3 | B3 | Bin 3 | 3
4 | B4 | Bin 3 | 3
5 | B5 | Bin 4 | 4
6 | B6 | Bin 4 | 4
